Tests used:
[1] = target: HLp from Leptospira perolatii (Leptospira perolatii); experiment: crystal structure; DNA-free HLp, 1.30 Å, molecular replacement; dimer in the asymmetric unit, tetramer by crystallographic symmetry
[2] = target: HLp from Leptospira perolatii (Leptospira perolatii); experiment: crystal structure; HLp-DNA_1: HLp co-crystallized with the 30-bp-GC40 DNA fragment, 2.10 Å; dimer in the asymmetric unit, tetramer by crystallographic symmetry
[3] = target: HLp from Leptospira perolatii (Leptospira perolatii); experiment: SEC-MALS; HLp alone; Superdex 75 Increase 10/300 GL, 25 mM Tris, 50 mM NaCl, 50 mM KCl, pH 7.5; samples incubated at 37 °C for 10 min; oligomer in solution
[4] = target: HLp from Leptospira perolatii (Leptospira perolatii); experiment: SEC-MALS; HLp incubated with the 30-bp-GC40 DNA fragment at a protein-to-DNA molar ratio of 2:1, 37 °C for 10 min; Superdex 75 Increase 10/300 GL, 25 mM Tris, 50 mM NaCl, 50 mM KCl, pH 7.5
[5] = target: HLp from Leptospira perolatii (Leptospira perolatii); experiment: crystal structure; HLp-DNA_2: HLp co-crystallized with the 30-bp-GC40 DNA fragment, 1.90 Å; monomer in the asymmetric unit, tetramer by crystallographic symmetry
[6] = target: HMfB (Methanothermus fervidus, UniProt P19267 1-69); experiment: MST; EMSA: 25 mM Tris pH 8.0, 50 mM NaCl, 50 mM KCl, 37 C 10 min; MST: 20 mM Tris pH 8.0, 150 mM NaCl, measured at 25 C (HLp 10 nM DNA, HMfB 20 nM DNA); conditions: protein: recombinant; chain copies: 4; label: 5'-Cy5 on strand 1; blunt
[7] = target: T1, HLp (Leptospira perolatii, UniProt A0A2M9ZN55 1-63); experiment: MST; 20 mM Tris pH 8.0, 150 mM NaCl; EMSA: 25 mM Tris pH 8.0, 50 mM NaCl, 50 mM KCl, 37 C 10 min; MST: 20 mM Tris pH 8.0, 150 mM NaCl, measured at 25 C (HLp 10 nM DNA, HMfB 20 nM DNA); conditions: protein: recombinant; tags: N-terminal His6, cleaved with TEV protease; chain copies: 4; label: 5'-Cy5 on strand 1; blunt
T1 sequence: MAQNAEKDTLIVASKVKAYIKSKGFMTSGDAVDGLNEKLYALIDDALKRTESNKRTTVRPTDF

[8] = target: T1, HLp; experiment: SEC-MALS; complex 69.2 +/- 5.7 kDa: one tetramer with two duplexes; EMSA: 25 mM Tris pH 8.0, 50 mM NaCl, 50 mM KCl, 37 C 10 min; MST: 20 mM Tris pH 8.0, 150 mM NaCl, measured at 25 C (HLp 10 nM DNA, HMfB 20 nM DNA); conditions: protein: recombinant; tags: N-terminal His6, cleaved with TEV protease; chain copies: 4; blunt

Sequence of HMfB (P19267 whole entry): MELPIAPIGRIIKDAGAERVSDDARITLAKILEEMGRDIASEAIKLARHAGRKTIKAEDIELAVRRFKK

**Q.** How did the stoichiometry N [1] turn out when “HLp from Leptospira perolatii (natural protein)” was run?
**A.** 4

**Q.** What about the stoichiometry N [2] of the same molecule?
**A.** 4

**Q.** What about the stoichiometry N [3] of the same molecule?
**A.** 4

**Q.** What about the stoichiometry N [4] of the same molecule?
**A.** 4

**Q.** What about the stoichiometry N [5] of the same molecule?
**A.** 4

B1: 80-bp DNA [Cy5] (dsDNA)
DNA 1: CCGTACTGTCGTCTGCGGCCTTTGATTATCAATTAAAGCGTTCTACGGCGTTTTTGATCGCTCAACGTGCGGAGCTAGAT
DNA 2: ATCTAGCTCCGCACGTTGAGCGATCAAAAACGCCGTAGAACGCTTTAATTGATAATCAAAGGCCGCAGACGACAGTACGG
**Q.** What does the source list for B1?
**A.** Kd [6]: 580 ± 130 nM; Kd [7]: 3180 ± 1060 nM

B2: 80-bp-GC40 [Cy5] (dsDNA)
DNA 1: TTTAAAGCCGTTTAAAGCCGTTTAAAGCCGTTTAAAGCCGTTTAAAGCCGTTTAAAGCCGTTTAAAGCCGTTTAAAGCCG
DNA 2: CGGCTTTAAACGGCTTTAAACGGCTTTAAACGGCTTTAAACGGCTTTAAACGGCTTTAAACGGCTTTAAACGGCTTTAAA
**Q.** Which results are given for B2?
**A.** Kd [6]: 310 ± 80 nM; Kd [7]: 1240 ± 140 nM

B3: 30-bp-GC40 (dsDNA)
DNA 1: TTTAAAGCCGTTTAAAGCCGTTTAAAGCCG
DNA 2: CGGCTTTAAACGGCTTTAAACGGCTTTAAA
**Q.** Does B3 bind [8]?
**A.** binds
